Blank lines part the entries; values can stand above or below the binder they belong to.
Target: T1, Recombinant human CD44/Fc (R&D Systems, Minneapolis, Minn., USA) (human, UniProt P16070 21-220)
T1 construct: Purchased reagent, amine-coupled to a CM5 chip at about 500 RU; also called rhCD44; recombinant CD44; not shown: Fc part of the purchased fusion
Assay: SPR (Biacore T100); rhCD44/Fc amine-coupled to a CM5 chip, antibody injected at 0.67 to 667 nM, 1:1 model

T1 sequence (P16070 21-220): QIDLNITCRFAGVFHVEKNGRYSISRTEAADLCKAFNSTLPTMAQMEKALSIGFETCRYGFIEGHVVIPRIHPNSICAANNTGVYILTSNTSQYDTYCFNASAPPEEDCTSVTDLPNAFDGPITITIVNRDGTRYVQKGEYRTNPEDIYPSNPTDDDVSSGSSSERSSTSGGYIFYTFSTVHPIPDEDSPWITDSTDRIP

Kd: 6.32 nM
B1: (hu)ARH460-16-2 variant HV1/KV1 (antibody, V domains shown)
VH: EVQLVESGGGLVQPGGSLRLSCAASGFDFSRYWMSWVRQAPGKGLVWVGEVNPDSTSINYTPSLKDRFTISRDNAKNTLYLQMNSLRAEDTAVYYCTRPNYYGSRYHYYAMDYWGQGTLVTVSS
VL: DIQMTQSPSSLSASVGDRVTITCRASQDINNYLNWYQQKPGKAPKLLIYYTSRLHSGVPSRFSGSGSGTDFTFTISSLQPEDIATYYCQQGSTLPFTFGQGTKLEIK
notes: Humanized variable regions cloned into pANT18 (human IgG1 constant region, human kappa constant region); also called (hu)ARH460-16-2 variant 1; huARH460-16-2-variant 1

Kd: 4.19 nM
B2: H460-16-2 (murine monoclonal antibody produced by the hybridoma deposited with the ATCC as accession number PTA-4621) (antibody, V domains shown)
VH: EVKLLESGGGLVQPGGSLKLSCATSGFDFSRYWMSWVRQAPGKGLEWIGEVNPDSTSINYTPSLKDQFIISRDNAKNTLDLQMSKVSSEDTALYYCTRPNYYGSRYHYYAMDYWGQGTSVTVSS
VL: DIQMTQTTSSLSVSLGDRVTINCRASQDINNYLNWYQQKPDGTVKLLIYYTSRLHSGVPSRFSGSGSGTDFSLTISNLEKEDVATYFCQQGSTLPFTFGSGTKLEIK
